For data set [1], the target named is T1, GST-OsNAC15 (Oryza sativa, UniProt K9LKF1 1-301).
T1 sequence: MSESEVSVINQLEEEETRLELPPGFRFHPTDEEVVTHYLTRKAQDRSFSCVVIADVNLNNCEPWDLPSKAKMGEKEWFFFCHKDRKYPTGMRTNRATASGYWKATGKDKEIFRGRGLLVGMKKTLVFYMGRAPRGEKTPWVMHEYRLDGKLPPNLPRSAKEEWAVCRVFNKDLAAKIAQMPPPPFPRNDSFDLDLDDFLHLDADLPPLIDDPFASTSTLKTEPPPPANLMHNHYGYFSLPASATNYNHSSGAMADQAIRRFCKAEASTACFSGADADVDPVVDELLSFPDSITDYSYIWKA
Nature of the data set: EMSA; EMSA: 20 uL reaction, room temperature, 20 min; 6.5% polyacrylamide gel in 0.5x TBE, 1 h; buffer, salt and pH not stated (LightShift Chemiluminescent EMSA kit). Conditions: protein: recombinant; tags: N-term GST (pGEX-4T1); chain copies: 2; label: biotin at 5' of F strand; biotin printed at 3' end of R strand; blunt.

The target in data set [2] is T1, GST-OsNAC15. Nature of the data set: competition; 25-fold molar excess over labeled OsZIP10 probe; complex band weaker; EMSA: 20 uL reaction, room temperature, 20 min; 6.5% polyacrylamide gel in 0.5x TBE, 1 h; buffer, salt and pH not stated (LightShift Chemiluminescent EMSA kit). Conditions: protein: recombinant; tags: N-term GST (pGEX-4T1); chain copies: 2; label: none; blunt.

B1: OsZIP10 probe (dsDNA)
DNA 1: TCGCGCCATGGTGTCGACACGGCCATCTCT
DNA 2: AGAGATGGCCGTGTCGACACCATGGCGCGA
Turning to B1, the binding result in data set [1] is “binds”.

B2: OsZIP10 cold competitor (dsDNA)
DNA 1: B1 DNA 1
DNA 2: B1 DNA 2
As to B2, in data set [2], the binding result was “binds”.

Source of the values: article PMC9569620, “OsNAC15 Regulates Tolerance to Zinc Deficiency and Cadmium by Binding to OsZIP7 and OsZIP10 in Rice”.
